Test results: patent publication US20070087000A1 (Pfizer, published 2007)

How the values were obtained:
[1] = target: T1, Human GDF-8 (mature, recombinant dimer), biotinylated in the ELISAs (human, UniProt O14793 267-375, biotinylated in the direct and competition ELISAs (sites not given)); experiment: competition ELISA: soluble ActRIIB-Fc as competitor of biotinylated GDF-8 binding to immobilized ActRIIB-Fc
T1 construct: It was not biotinylated in the reporter assay; also called myostatin; growth and differentiation factor-8

[2] = target: T1, Human GDF-8 (mature, recombinant …); experiment: competition ELISA: RK35 inhibits binding of biotinylated GDF-8 to immobilized ActRIIB-Fc; competition ELISA, biotinylated GDF-8 to immobilized ActRIIB-Fc

Row | IC50 (read off the curve) [1] | IC50 [2] | Binder
1 | ~0.3 nM |  | Recombinant ActRIIB-Fc chimera (human ActRIIB fused to the human IgG constant region, Fc) (Fc fusion, UniProt Q13705 19-137, looked up, extracellular domain; The same protein was used immobilised and as the soluble positive control; also called soluble ActRIIB; soluble ActRIIB-Fc receptor; not shown: human IgG1 Fc region) SGRGEAETRECIYYNANWELERTNQSGLERCEGEQDKRLHCYASWRNSSGTIELVKKGCWLDDFNCYDRQECVATEENPQVYFCCCEGNFCNERFTHLPEAGGPEVTYEPPPTAPTLLT
2 |  | ~2.5 nM | RK35 anti-GDF-8 mouse monoclonal antibody (antibody, V domains shown, Murine monoclonal antibody from a hybridoma (myostatin knockout BALB/c mice immunised with recombinant GDF-8 dimer); also called RK35 mAb; murine RK35) VH: EVQLVESGGGLVKPGGSLKLSCAASGFTFSSYAMSWVRQTPEKRLEWVATISSGGSYTSYPDSVKGRFTISRDNAKNTLYLQMSSLRSEDTAMYYCARQDYAMNYWGQGTSVTVSS VL: DIEMTQSHKFMSTSVGDRVSITCKASQDVSTAVAWYQQKPGQSPKLLLYSASYRYTGVPDRFTGSGSGTDFTFTISSVQAEDLAVYYCQQHYSTPWTFGGGTKLEIK
